Results from patent US20200399344A1 (SHATTUCK LABS, published 2020).
Values joined by “and” are separate entries in the source; they are usually repeats but may differ in a detail not shown here. Identical values can stand only once.

Key:
[1] = target: T1, recombinant mCD47 (mCD47-His) protein (mouse, UniProt Q61735 19-140, limits assumed); assay: sandwich ELISA, anti-NKG2a antibody coated, mCD47-His detection (FIG. 38)
T1 construct: not shown: His tag
T1 sequence (looked up): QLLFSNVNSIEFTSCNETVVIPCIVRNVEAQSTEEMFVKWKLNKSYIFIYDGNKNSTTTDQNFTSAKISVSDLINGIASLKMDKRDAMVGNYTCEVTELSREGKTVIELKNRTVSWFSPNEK
Protocol: Increasing amounts of the mSIRPα-Fc-NKG2A chimeric protein was added and detected using mCD47-His. The CD86-Fc-NKG2A chimeric protein was used as a negative control.
To understand whether the mSIRPα-Fc-NKG2A chimeric protein can binds simultaneously to both anti-NKG2a and CD47, the following ELISA experiment was carried out. Briefly, and anti-NKG2a antibody was coated on plates. Increasing amounts of the mSIRPα-Fc-NKG2A and mCD48-Fc-NKG2A chimeric proteins were added to the plates for capture by the anti-NKG2a antibody. Further, recombinant mCD47 (mCD47-His) protein was added to the plate for capture by mSIRPα-Fc-NKG2A chimeric protein. The binding of the mCD47-His protein was detected using an anti-His HRP antibody.

[2] = target: T2, recombinant human CD28-His (rhCD28-His) (human, UniProt P10747 19-152); assay: ELISA: coat rhCD28-His (Acro), detection printed as Anti-hFc-HRP
T2 construct: also called Human CD28-His protein; recombinant CD28 protein; not shown: His tag
T2 sequence (P10747 19-152 limits assumed): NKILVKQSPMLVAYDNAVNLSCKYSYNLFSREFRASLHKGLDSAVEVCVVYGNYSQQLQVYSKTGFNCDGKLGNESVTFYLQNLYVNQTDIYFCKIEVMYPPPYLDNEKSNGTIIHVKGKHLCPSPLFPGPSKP
Protocol: To understand whether the CD80 and CD86 parts of the hCD80-Fc-NKG2A and hCD86-Fc-NKG2A chimeric protein can bind CD28, ELISA-based assays were performed. Briefly, recombinant CD28 protein was coated on plates and increasing amounts of the hCD80-Fc-NKG2A, hCD86-Fc-NKG2A, and mCD48-Fc-NKG2A chimeric proteins, and recombinant human CD86-Fc (rhCD86-Fc) protein was added to the plates for capture by the plate-bound recombinant CD28 protein. The mCD48-Fc-NKG2A chimeric protein, and recombinant human CDrhCD86-Fc protein was used as negative and positive controls, respectively. The chimeric proteins bound to the recombinant CD28 protein was detected using an anti-human Fc HRP.

[3] = target: T3, HLA class I histocompatibility antigen, alpha chain E (HLA-E), plate-bound recombinant protein (human, UniProt P13747 22-305, limits assumed); assay: Dual binding ELISA: coat mHLA-E (Novus) as printed, detect Anti-mCD48 (R&D), HRP Anti-Goat HRP
T3 construct: no tag named there; also called recombinant HLA-E protein
T3 sequence (P13747 22-305 limits assumed): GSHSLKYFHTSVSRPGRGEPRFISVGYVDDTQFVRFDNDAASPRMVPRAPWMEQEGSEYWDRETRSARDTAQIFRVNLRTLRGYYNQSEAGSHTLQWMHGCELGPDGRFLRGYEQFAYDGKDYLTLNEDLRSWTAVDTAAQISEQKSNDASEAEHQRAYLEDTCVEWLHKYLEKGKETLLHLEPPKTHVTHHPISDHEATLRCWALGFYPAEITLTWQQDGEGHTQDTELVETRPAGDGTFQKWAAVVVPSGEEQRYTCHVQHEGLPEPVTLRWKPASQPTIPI

[4] = target: T4, anti-mFc IgG antibody (plate-bound); assay: Fc ELISA: coat Anti-mFc (Jax), detect Anti-mFc-HRP (Jax)
T4 construct: also called anti-Fc antibody
From the text: A mouse whole IgG was used to generate a standard curve.

B1: mouse CD48-Fc-NKG2A chimeric protein (Fc fusion)
chain: FQGHSIPDINATTGSNVTLKIHKDPLGPYKRITWLHTKNQKILEYNYNSTKTIFESEFKGRVYLEENNGALHISNVRKEDKGTYYMRVLRETENELKITLEVFDPVPKPSIEINKTEASTDSCHLRLSCEVKDQHVDYTWYESSGPFPKKSPGYVLDLIVTPQNKSTFYTCQVSNPVSSKNDTVYFTLPCDLARSVPRDCGCKPCICTVPEVSSVFIFPPKPKDVLTITLTPKVTCVVVDISKDDPEVQFSWFVDDVEVHTAQTQPREEQFNSTFRSVSELPIMHQDWLNGKEFKCRVNSAAFPAPIEKTISKTKGRPKAPQVYTIPPPKEQMAKDKVSLTCMITDFFPEDITVEWQWNGQPAENYKNTQPIMDTDGSYFVYSKLNVQKSNWEAGNTFTCSVLHEGLHNHHTEKSLSHSPGIIEGRMDTPYTEAKAQINSSMTRTHRDINYTLSSAQPCPHCPKEWISYSHNCYFIGMERKSWNDSLVSCISKNCSLLYIDSEEEQDFLQSLSLISWTGILRKGRGQPWVWKEDSIFKPKIAEILHDECNCAMMSASGLTADNCTTLHPYLCKCKFPI
notes: also called mCD48-Fc-NKG2A
- binding result [1]: no binding
- binding result [2]: no binding (tested: log[Agonist] about 2.7, ug/ml)
- EC50 [3]: 537 nM and 381 nM
- EC50 [4]: 0.938 nM and 0.436 nM
